From US20160304615A1 (Regeneron, published 2016) come the findings set out here.

Usually Kd stands for the constant that tells how readily two partners part at equilibrium. The low end stands for a tighter complex, the high end for a looser complex. As a reminder, the koff is a measure of how fast the partners let go of each other. Read a high koff as a short-lived complex. As usually defined, the kon is the rate constant with which the complex forms. Lower therefore signals slower complex formation. As usually defined, the EC50 is the concentration at which the effect is half-maximal. A low value points to a more potent agent.

For assay [1], the target named is T1, wild-type human EGFR on cells (human, UniProt P00533 25-1210).
T1 construct: Stands for transfected HEK293/hEGFRwt, endogenous EGFR of A431 and of parental HEK293 cells, and human EGFR of hEGFR mice; the cell line is named under assay; also called EGFRwt; hEGFRwt
Kind of assay: FACS, A431 cells, PE secondary antibody. How it is done: (§1) To determine the specificity of the anti-EGFRvIII mAbs, their binding to HEK293, HEK293 cells expressing EGFRvIII (HEK293/EGFRvIII) and A431 cells, was analyzed by fluorescence activated cell sorting (FACS). HEK293/EGFRvIII cells were prepared by transfecting HEK293 cells with neomycin resistant DNA vectors constitutively expressing full-length hEGFRvIII (SEQ ID NO:147) using LIPOFECTAMINE™ 2000 transfection reagent (INVITROGEN™). At two days post-transfection, cells were placed under G418 selection for approximately two weeks. Populations positively expressing EGFRvIII were isolated via fluorescence activated cell sorting (FACS). The HEK293 cells expressing ˜3×10⁶ copies of EGFRvIII per cell were used in the experiment. […] In another set of experiment, anti-EGFRvIII antibodies were directly conjugated via their lysine residues with the fluorescent dye, ALEXA FLUOR® 488 Dye (INVITROGEN™), thereby eliminating the step using the secondary antibody. […] Controls I, II, III, IV and V are described above. MFI: Mean Fluorescence Intensity.

Assay [2] addresses T2, EGFRvIII-mFc (human).
T2 construct: Soluble dimeric protein
Nature of the assay: SPR 37C, receptor-capture. The method, then:
(§2) Measurements were conducted on a T100 BIACORE™ instrument. […] In the receptor-capture format, either EGFRvIII-mFc or EGFR-mFc, was captured on the BIACORE™ chip and the respective antibodies flowed over. Kinetic association (kₐ) and dissociation (kd) rate constants were determined by processing and fitting the data to a 1:1 binding model using Scrubber 2.0 curve fitting software. Binding dissociation equilibrium constants (KD) and dissociative half-lives (t_{1/2}) were calculated from the kinetic rate constants as: KD (M)=kd/kₐ; and t₁₁₂ (min)=ln2/(60*kd).

Assay [3] has as its target T3, EGFR-mFc (human).
T3 construct: Soluble dimeric protein
Nature of the assay: SPR 37C, receptor-capture. The method, then: as §2

For assay [4], the target named is T4, EGFR-mmh (human, UniProt P00533 25-647, limits assumed).
T4 construct: Soluble monomeric protein; also called hEGFR-mmh
Nature of the assay: ELISA. From the text:
(§3) To further characterize anti-hEGFRvIII mAbs, their binding specificity was examined by ELISA. […] Also, coated was an irrelevant peptide (control peptide) with or without biotin at its N-terminal. […] The plates were then washed and bound anti-EGFRvIII mAbs were detected with anti-human Fc antibodies conjugated with horse-radish peroxidase (HRP). […] Data analysis used a sigmoidal dose-response model within PRISM™ software.
Background: An ELISA detects its analyte on a solid surface through an enzyme-linked reagent.

The target of assay [5] is T5, EGFRvIII-mmh (human, UniProt P00533 298-647, limits assumed).
T5 construct: Soluble monomeric protein; also called hEGFRvIII-mmh; hEGFRvIII.mmh
Nature of the assay: ELISA.
From the text: as §3

For assay [6], the target named is T2, EGFRvIII-mFc. Nature of the assay: SPR 37C, mAb-capture.
Assay [7] addresses T3, EGFR-mFc. Nature of the assay: SPR 37C, mAb-capture.
In assay [8] the target is T4, EGFR-mmh. Nature of the assay: SPR 37C, mAb-capture.
For assay [9], the target named is T5, EGFRvIII-mmh. Kind of assay: SPR 37C, mAb-capture.
Assay [10] addresses T6, full-length hEGFRvIII on cells (human, UniProt P00533 298-1210).
T6 construct: Expressed from vectors in HEK293, U87, B16F10.9, U251 and MMT 060562 cells; also called HEK293/EGFRvIII; HEK293/hEGFRvIII
Nature of the assay: FACS, HEK293/EGFRvIII cells, PE secondary antibody. The method, then:
as §1
(Flow cytometry measures light scatter and fluorescence of single cells or particles in a stream.)

In assay [11] the target is T7, C-terminal biotin-labeled EGFR311-326 peptide (human, biotin at the C-terminus).
T7 peptide: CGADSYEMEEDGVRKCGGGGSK
Nature of the assay: BLI (Octet RED), biotinylated peptide on streptavidin tips. How it is done: After peptide capture, the coated tips were placed in 1 μM solutions of antibody and the binding responses were recorded (see FIG. 2). Controls I-III are the same as those described above.
(Biolayer interferometry detects binding as a change in optical thickness at a sensor tip.)

B1: H1H2195P (antibody, human IgG1, V domains shown)
VH: QVQLVESGGGVVQPGRSRRLSCVGSGFIFSSYGMHWVRQAPGKGLEWVALIFYDGSNEYYVDSVKGRFTISRDNSKNTLYLQMNSLRAEDTAVYYCAREGYSQRYKYYFGMDVWGQGTTVTVSS
VL: DIQMTQSPSSVSASVGDRVTITCRASQGISSWLAWYQQQPGKAPKLLIYAASSLQSGVPSRFSGSGSGTDFTLTISSLQPEDFATYYCQQTNSFPLTFGGGTKVEIKR
notes: Human IgG1 Fc; also called H1H2195N
On to B1, for which the “A431 MFI” value in [1] came out at 2230 MFI. Further, in assay [1], the “Fold Above Background” value stood at 1.6 fold. Further, the equilibrium dissociation constant (Kd) in the assay with EGFRvIII-mFc [2] amounted to 0.106 nM; with EGFR-mFc [3] it was 0.231 nM; in the assay with EGFRvIII-mFc [6], 1.1 nM; in the assay with EGFR-mFc [7], 2.05 nM; with EGFR-mmh [8] it was 9.2 nM; in the assay with EGFRvIII-mmh [9], 10.7 nM. Further, the T½ in the assay with EGFRvIII-mFc [2] came out at 7.6 h; with EGFR-mFc [3], 3.7 h; in the assay with EGFRvIII-mFc [6], 1.72 h; in the assay with EGFR-mFc [7], 1.02 h; in the assay with EGFR-mmh [8] it was 0.367 h; with EGFRvIII-mmh [9], 0.283 h. In addition, the koff amounted to 2.53e-05 s⁻¹ with EGFRvIII-mFc [2]; 5.2e-05 s⁻¹ in the assay with EGFR-mFc [3]; 0.000113 s⁻¹ in the assay with EGFRvIII-mFc [6]; 0.000189 s⁻¹ with EGFR-mFc [7]; 0.000523 s⁻¹ with EGFR-mmh [8]; 0.000694 s⁻¹ with EGFRvIII-mmh [9]. The kon in the assay with EGFRvIII-mFc [2] was found to be 237000 M⁻¹ s⁻¹; with EGFR-mFc [3], 225000 M⁻¹ s⁻¹; with EGFRvIII-mFc [6] it was 102000 M⁻¹ s⁻¹; with EGFR-mFc [7], 92000 M⁻¹ s⁻¹; with EGFR-mmh [8], 56600 M⁻¹ s⁻¹; in the assay with EGFRvIII-mmh [9] it was 64800 M⁻¹ s⁻¹. The EC50 worked out at 0.0052 nM with EGFR-mmh [4] and 0.0049 nM with EGFRvIII-mmh [5]. In addition, the “HEK293/EGFRvIII MFI” value in [10] was determined as 13500 MFI. Moreover, in assay [10], the “Ratio (EGFRvIII MFI/parental MFI)” value was 11.5.

B2: H1H1863N2(Fuc-) (antibody, human IgG1, V domains shown)
VH: EVQLVESGGGLVQPGGSLRLSCAASGFPFSSYDMHWVRQATGKGLEWVSAIGTAGATYYPGSVKGRFTISRENAKNSLYLQMNSLRAGDTAVYYCARGDYVWGTYRPLFDYWGQGTLVTVSS
VL: DIQLTQSPSFLSASVGDRVTITCWASQGINNYLAWYQQKPGKAPKLLIYAASTLQTGVPSRFSGSGSGTEFTLTISSLQPEDFATYYCQQLNSYPLTFGGGTKVEIK
notes: Human IgG1; also called H1H1863N2 with reduced fucosylation; H1H1862N2 (Fuc-)
In the case of B2, in assay [11], the binding result is “no binding (tested: 1 µM)”. In the assay with EGFRvIII-mFc [2], the T½ stood at 0.9 h.
